Experimental data from IntAct's records for PubMed 19207211.

B1: Oxysterol-binding protein-related protein 3A (Arabidopsis thaliana (Mouse-ear cress)), Q9LZM1 (parent)
chain: MASNDPKNGGGFFASLASSITNFGSAMSKSVNGLMGYEGLEVINPEGSTDDAEEEAGRGRWKQEERDGYWKMMQKYIGSDVTSMVTLPVIIFEPMTMLQKMAELMEYSYLLDMADKTEDPYMRMVYASSWAISVYYAYQRTWKPFNPILGETYEMTNHNGINFIAEQVCHHPPMSAGHAENEHFAYDCTSKLKTKFLGNSIDVYPVGRTRVTLKRDGVVLDLVPPLTKVHNLIFGRTWVDSPGEMVMTNLTTGDKVVLYFQPCGWFGSGRYEVDGYVYNSAEEPKMLMTGKWNESLSYQPCDAEGEPLPGTELKEVWKVAEAPKNDKYQYTHFAHKINSFDTAPKKLLSSDSRLRPDRYALEMGDMSKSGFEKSSLEDRQRAEKKSREEKGQKFAPKWFDETEEVTPTPWGDLEVYQFNGKYSVHRATAENSEDTTDVKLTQFNPWQFQDLSA
partner: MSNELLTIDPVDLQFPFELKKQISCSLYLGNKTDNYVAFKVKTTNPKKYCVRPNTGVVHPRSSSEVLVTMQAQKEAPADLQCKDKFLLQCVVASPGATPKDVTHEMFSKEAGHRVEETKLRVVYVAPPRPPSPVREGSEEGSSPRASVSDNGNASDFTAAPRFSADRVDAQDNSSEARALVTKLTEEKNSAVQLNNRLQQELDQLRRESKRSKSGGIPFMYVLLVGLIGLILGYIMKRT

Variants of: B1
Conditions: with vap12_arath PVA12, Q9SHC8

Row | Variant | effect of a mutation on the interaction
1 | MASNDPKNGGGFFASLASSITNFGSAMSKSVNGLMGYEGLEVINPEGSTDDAEEEAGRGRWKQEERDGYWKMMQKYIGSDVTSMVTLPVIIFEPMTMLQKMAELMEYSYLLDMADKTEDPYMRMVYASSWAISVYYAYQRTWKPFNPILGETYEMTNHNGINFIAEQVCHHPPMSAGHAENEHFAYDCTSKLKTKFLGNSIDVYPVGRTRVTLKRDGVVLDLVPPLTKVHNLIFGRTWVDSPGEMVMTNLTTGDKVVLYFQPCGWFGSGRYEVDGYVYNSAEEPKMLMTGKWNESLSYQPCDAEGEPLPGTELKEVWKVAEAPKNDKYQYTHFAHKINSFDTAPKKLLSSDSRLRPDRYALEMGDMSKSGFEKSSLEDRQRAEKKSREEKGQKFAPKAAGGTGEVTPTPWGDLEVYQFNGKYSVHRATAENSEDTTDVKLTQFNPWQFQDLSA [W398A;F399A;D400G;E401G;E403G] | disrupting interaction
